Broadly, the Km is the concentration of substrate that gives half-maximal velocity.

“And” between values parts separate entries of the source, which are not always exact repeats. Equal values may be shown once.

These results are taken from patent publication US9823254B2, “Reversible chemoenzymatic labeling of native and fusion carrier protein motifs” (The Regents of the University of California, priority 2012, dated 2017).

For data set [1], the system named is G. fujikuroi Pks4. In words: AcpH qualitative CP activity, gel-based, crypto-CP. The format is biochemical. The following applies: PKS; crypto-CP (coumarin-PPant), overnight, 37° C., 1 μM AcpH.
Data set [2] addresses T1, V. cholerae VibB (Vibrio cholerae serotype O1, UniProt P0C6D3).
T1 sequence (P0C6D3 whole entry, looked up): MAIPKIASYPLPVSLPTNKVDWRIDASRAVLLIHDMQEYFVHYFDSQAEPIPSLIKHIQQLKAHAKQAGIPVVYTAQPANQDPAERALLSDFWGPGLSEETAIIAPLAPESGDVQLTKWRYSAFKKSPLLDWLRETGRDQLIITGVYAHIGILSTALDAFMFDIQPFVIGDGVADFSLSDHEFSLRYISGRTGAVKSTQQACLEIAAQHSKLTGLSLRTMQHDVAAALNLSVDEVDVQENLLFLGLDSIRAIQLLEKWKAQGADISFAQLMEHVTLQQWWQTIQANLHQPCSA
Particulars: NRPS; crypto-CP (coumarin-PPant), overnight, 37° C., 1 μM AcpH.

The subject of data set [3] is P. agglomerans AdmA. The data set can be described thus: AcpH qualitative CP activity, gel-based, crypto-CP. The class given is biochemical. Particulars: NRPS; crypto-CP (coumarin-PPant), overnight, 37° C., 1 μM AcpH.
Data set [4] relates to P. fluorescens PltL. In words: AcpH qualitative CP activity, gel-based, crypto-CP. The class given is biochemical. Particulars: NRPS; crypto-CP (coumarin-PPant), overnight, 37° C., 1 μM AcpH.
The target of data set [5] is M. tuberculosis AcpM (Mycobacterium tuberculosis, UniProt P9WQF3). The following applies: FAS; crypto-CP (coumarin-PPant), overnight, 37° C., 1 μM AcpH.
For data set [6], the target named is T2, crypto-FITC-YbbR (3) (Bacillus subtilis, UniProt O34659).
T2 construct: made in house; host or cells: enzymatic labelling of FITC-ybbR peptide with Sfp and rhodamine-CoA
T2 sequence (O34659 whole entry, looked up): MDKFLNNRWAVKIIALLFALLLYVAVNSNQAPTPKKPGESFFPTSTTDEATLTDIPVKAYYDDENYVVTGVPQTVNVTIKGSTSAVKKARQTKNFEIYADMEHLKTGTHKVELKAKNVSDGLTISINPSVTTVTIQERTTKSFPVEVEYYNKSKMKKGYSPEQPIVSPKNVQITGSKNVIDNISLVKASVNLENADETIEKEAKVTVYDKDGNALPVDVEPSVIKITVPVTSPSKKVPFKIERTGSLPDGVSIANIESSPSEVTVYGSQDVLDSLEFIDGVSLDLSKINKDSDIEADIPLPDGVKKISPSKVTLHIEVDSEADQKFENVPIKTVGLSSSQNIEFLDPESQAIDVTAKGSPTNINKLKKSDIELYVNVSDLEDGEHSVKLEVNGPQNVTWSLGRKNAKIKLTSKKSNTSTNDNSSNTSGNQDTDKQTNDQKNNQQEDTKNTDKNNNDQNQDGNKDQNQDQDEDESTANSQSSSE
The data set can be described thus: FRET-quench microwell AcpH kinetics. The format is biochemical. Particulars: 37° C., FRET-quench microwell plate assay, [AcpH] 1 μm. The method, then:
Preparation of rhodamine-labeled FITC-ybbR proceeded via reaction of 200 μM FITC-ybbR with 200 μM rhodamine WT-CoA synthesized as described previously^33 with 1 μM Sfp in 50 mM HEPES pH 7.5 and 10 mM MgCl2 for 2 hours at 37° C.
Rhodamine-labeled FITC-Ybbr as well as standard 1:1 apo-FITC-ybbR:rhodamine-CoA was subjected to an 11-point serial dilution in 50 mM TrisCl pH 8.0 to achieve final concentrations of 400-0.4 μM. […] Total reaction volumes were 50 μL and utilized a 96-well Costar 3694 plate (Corning, Lowell, Mass.). Following mixing, reactions were centrifuged for 2 minutes at 1500 rpm, and incubated at 37° C. over 4 hours in a HTS 7000 plus Bioassay Reader (Perkin Elmer, Waltham, Mass.) in kinetic mode. Comparison of enzyme reactions to buffer blank and 1:1 apo-FITC-ybbR:rhodamine-CoA standard allowed calculation of product formation and determination of Michaelis-Menten kinetics using GraphPad Prism.

The subject of data set [7] is L majuscula JamF. In words: AcpH qualitative CP activity, gel-based, crypto-CP. The class given is biochemical. Particulars: PKS; crypto-CP (coumarin-PPant), overnight, 37° C., 1 μM AcpH.
Data set [8] concerns the target T3, L majuscula JamC (Moorena producens, UniProt Q6E7K7).
T3 construct: made in house
The data set can be described thus: AcpH qualitative CP activity, gel-based, crypto-CP. The class given is biochemical. Particulars: PKS; crypto-CP (coumarin-PPant), overnight, 37° C., 1 μM AcpH.

Data set [9] deals with P. syringae SyrB1 (Pseudomonas syringae pv. syringae, UniProt Q52400). In words: AcpH qualitative CP activity, gel-based, crypto-CP. The class given is biochemical. The following applies: NRPS; crypto-CP (coumarin-PPant), overnight, 37° C., 1 μM AcpH.
For data set [10], the target named is T4, S. coelicolor ActACP (Streptomyces coelicolor, UniProt Q02054).
T4 construct: made in house
T4 sequence (Q02054 whole entry, looked up): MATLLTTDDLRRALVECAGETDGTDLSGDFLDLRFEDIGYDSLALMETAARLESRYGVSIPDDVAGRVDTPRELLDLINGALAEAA
The data set can be described thus: AcpH qualitative CP activity, gel-based, crypto-CP. The format is biochemical. Particulars: PKS; crypto-CP (coumarin-PPant), overnight, 37° C., 1 μM AcpH.

The target in data set [11] is P. aeruginosa AcpP (Pseudomonas aeruginosa, UniProt O54439). The following applies: FAS; crypto-CP (coumarin-PPant), overnight, 37° C., 1 μM AcpH. The method, then:
(§1) Unless otherwise noted, all coumarin-PPant labeling proceeded as follows: apo-carrier protein or peptide at 50-200 μM were labeled in 50 mM Na-HEPES pH 7.5, 10 mM MgCl2, 8 mM ATP, 0.1 μM MBP-CoaA/D/E, 0.1 μM native Sfp, and 1.1 equivalents of coumarin-pantetheine at 37° C. overnight. Crypto-protein samples were repurified using standard IMAC techniques in pH 8 lysis buffer with Ni-NTA resin, and spin-concentrated/buffer exchanged to remove imidazole and concentrate with 0.5 mL 3 kDa MWCO cellulose filters. Crypto-peptide samples were purified with HPLC, lyophilized, and redissolved in 50 mM TrisCl pH 8.0 prior to analysis.
(§2) Following AcpH treatment, an equal volume of 2×SDS-PAGE loading dye was added to crypto-carrier proteins samples and heated 5 min at 90° C., and run on 12% or 15% SDS-PAGE. Gels were fixed in 50/40/10% water/methanol/acetic acid for 30 minutes, and washed with water three times before UV imaging. Holo-carrier protein reactions were analyzed with Urea-PAGE as previously described.^6 All protein gels were Coomassie stained for evaluating total protein. Crypto-peptides were evaluated on Urea-PAGE, and were imaged immediately after running with no gel fixing.

Data set [12] concerns the target E. coli AcpP (Escherichia coli, UniProt P0A6A8). The following applies: FAS; crypto-CP (coumarin-PPant), overnight, 37° C., 1 μM AcpH. The method, then: as §1, §2
Data set [13] relates to P. falciparum ACP. The data set can be described thus: AcpH qualitative CP activity, gel-based, crypto-CP. The format is biochemical. Particulars: FAS; crypto-CP (coumarin-PPant), overnight, 37° C., 1 μM AcpH.
Data set [14] relates to A. orientalis CepK. The data set can be described thus: AcpH qualitative CP activity, gel-based, crypto-CP. The class given is biochemical. The following applies: NRPS; crypto-CP (coumarin-PPant), overnight, 37° C., 1 μM AcpH.
Data set [15] concerns the target holo-ACP (E. coli) (Escherichia coli, UniProt P0A6A8). The following applies: 37° C., HPLC detection, [AcpH] 1 (CyAcpH 0.005) μm.
Description: Holo-E. coli AcpP was prepared as a serial dilution in 50 mM TrisCl, 250 mM NaCl, 30 mM MgCl2, and 2 mM MnCl2. […] CyAcpH was prepared at 10 nM in the same AcpH buffer. […] Reactions were transferred to prewarmed shaker at 37° C. and were quenched with 100 mM EDTA after 10 minutes. Samples were centrifuged and evaluated at 210 nm with HPLC using an acetonitrile gradient to determine apo-AcpP product formation. Michaelis-Menten kinetics were calculated using GraphPad Prism (GraphPad Software, La Jolla, Calif.).
E. coli holo-ACP was diluted into 50 mM TrisCl pH 8.0, 250 mM NaCl, 10% glycerol, 30 mM MgCl2 and 2 mM MnCl2 buffer to a concentration of 800 μM. […] AcpH was diluted from MOPS lysis buffer into 50 mM TrisCl pH 8.0, 250 mM NaCl, 10% glycerol and added to an equal volume of the holo-ACP serial dilution to initiate the reaction. Reaction tubes were transferred to a pre-warmed rack at 37° C. and shaken for the duration of the experiment. […] All samples were frozen at -80° C. until evaluated by HPLC.
Kinetics samples were mixed briefly with finger flicking, and centrifuged at 13000 rpm for 10 minutes at room temperature prior to transferring contents into HPLC vials. 20 μL of each reaction time point was injected on an Agilent 1100 series HPLC with column (Burdick & Jackson OD5 #9575, 25 cm×4.6 mm ID) using an acetonitrile/water gradient. Both water and acetonitrile contained 0.05% TFA. Method gradient for each injection: 0-5 min with 10% acetonitrile, 5-30 min with 10-100% acetonitrile, 30-35 min with 100% acetonitrile, 35-37 min with 100-10% acetonitrile, 37-40 min with 10% acetonitrile. HPLC-grade solvents (J. T. Baker, Phillipsburg, N.J.) were used exclusively. Apo- & holo-ACP protein standards were used to validate the retention times identified using 210 nm UV light at approximately 21 and 19 minutes, respectively. Peak integration was performed for all samples, and substrate turnover was calculated from the ratio of apo- to holo-ACP present in the HPLC trace and the known concentration of total ACP in reaction samples. Calculated rates for AcpH versus substrate concentration were obtained through Excel data analysis and graphed in Prism GraphPad using the “Michaelis-Menten” function for enzyme kinetics, with a zero data point added for substrate concentration of 0 μM*min-1 and 0 μM substrate for AcpH graphs.
In data set [16] the test system is P. agglomerans AdmI. The data set can be described thus: AcpH qualitative CP activity, gel-based, crypto-CP. The format is biochemical. The following applies: PKS; crypto-CP (coumarin-PPant), overnight, 37° C., 1 μM AcpH.
Data set [17] concerns the target T5, A. parasiticus PksA (Aspergillus parasiticus, UniProt Q12053).
T5 construct: made in house
The data set can be described thus: AcpH qualitative CP activity, gel-based, crypto-CP. The format is biochemical. Particulars: PKS; crypto-CP (coumarin-PPant), overnight, 37° C., 1 μM AcpH.

In data set [18] the test system is S. oneidensis AcpP. The data set can be described thus: AcpH qualitative CP activity, holo-SoAcpP, Urea-PAGE. The class given is biochemical. The following applies: FAS, Urea-PAGE gel-shift, shorter timescale.
For data set [19], the system named is M. tuberculosis MAS. The data set can be described thus: AcpH qualitative CP activity, gel-based, crypto-CP. The format is biochemical. The following applies: FAS (FAS/PKS hybrid), overnight, 37° C., 1 μM AcpH.
The subject of data set [20] is YbbR13. In words: AcpH activity with modified ybbR peptide, qualitative. The class given is biochemical. The following applies: for AcpH activity with modified ybbR peptide: coumarin-PPant labeled.
Data set [21] addresses apo-E. coli AcpP (Escherichia coli, UniProt P0A6A8). The following applies: Sfp for apo-E. coli AcpP; cited from earlier work.
Data set [22] concerns the target T6, ybbR (Bacillus subtilis, UniProt O34659).
T6 sequence (O34659 whole entry, looked up): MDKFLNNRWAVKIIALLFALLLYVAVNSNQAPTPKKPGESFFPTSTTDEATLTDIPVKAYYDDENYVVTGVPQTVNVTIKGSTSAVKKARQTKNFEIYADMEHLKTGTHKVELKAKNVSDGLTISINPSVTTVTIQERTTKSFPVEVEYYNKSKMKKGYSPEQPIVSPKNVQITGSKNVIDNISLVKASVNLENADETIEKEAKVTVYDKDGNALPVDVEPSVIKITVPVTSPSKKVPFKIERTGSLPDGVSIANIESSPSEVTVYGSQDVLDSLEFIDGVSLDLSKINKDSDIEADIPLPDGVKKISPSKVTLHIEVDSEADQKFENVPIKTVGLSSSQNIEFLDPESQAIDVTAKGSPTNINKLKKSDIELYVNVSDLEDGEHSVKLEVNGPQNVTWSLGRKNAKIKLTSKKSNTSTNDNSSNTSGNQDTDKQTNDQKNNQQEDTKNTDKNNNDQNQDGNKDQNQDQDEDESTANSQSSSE
Particulars: Sfp for ybbR; cited from earlier work.

B1: CyAcpH: acyl carrier protein hydrolase homolog from Cyanothece PCC 7822, YP13 003888700.1 (protein)
chain: MNYLAHLFLADPTPESQIGNLLGDFVKGKIDNLSSIYSPEIIRGVKTHQKIDIFTDHHPIFKTSKQRLNQNHRKFAGVIIDIYYDHFLAKNWLIYSEQDLDEFVANTYQMLEQHQLLLPEKLQKALPCMIQEDWLGSYRYFEGIDQTFSRLSRRIKRTNNIAFALEDLIQNYSQLEEDFLQFFPQLIDYVNLA
modifications: Cyanothece sp. PCC 7822
In the case of B1, the “AcpH qualitative CP activity” value is “no” in [1]; “no” in data set [2]; “no” in data set [3]; “no” in [4]; “YES” in data set [5]; “no” in data set [7]. For the same molecule, the “AcpH qualitative CP activity” value in [8] is “YES”; in data set [9], “no”; in [10] it was “no”; in [11] it was “YES”; in data set [12], “YES”; in [13], “YES”. Further, the “AcpH qualitative CP activity” value in data set [14] is listed as “no”; in [16], “no”; in [17], “YES”; in [18], “YES^†”; in data set [19] it was “no”. Further, the Km in data set [6] was 21 µM; in data set [15] it was 58 ± 9 µM. For the same molecule, the Vmax is 0.004 ± 0.004 min⁻¹ in [6] and 1.1 ± 0.1 min⁻¹ in [15]. The kcat in data set [6] was 6.7e-05 ± 6.7e-05 s⁻¹; in data set [15], 3.52 s⁻¹ and 3.52 ± 0.183 s⁻¹. For the same molecule, the “qualitative activity for all ybbR constructs” value in data set [20] (Coumarin-PPant conjugated to all ybbR variations, Urea-PAGE) is listed as “qualitative activity”. Also, the “AcpH activity with modified ybbR peptide” value is reported as “YES” in [20] (YbbR13: N-term 6xHis, C-term GFP); “YES” in [20] (YbbR13: N-term FITC, C-term N/A); “YES” in data set [20] (YbbR13: N-term GFP, C-term 6xHis); “YES” in [20] (YbbR13 free peptide: N-term N/A, C-term N/A).

B2: Sfp: phosphopantetheinyl transferase (PPTase) from Bacillus subtilis (protein, UniProt P39135 1-224, looked up)
4'-phosphopantetheinyl …: MKIYGIYMDRPLSQEENERFMSFISPEKREKCRRFYHKEDAHRTLLGDVLVRSVISRQYQLDKSDIRFSTQEYGKPCIPDLPDAHFNISHSGRWVICAFDSQPIGIDIEKTKPISLEIAKRFFSKTEYSDLLAKDKDEQTDYFYHLWSMKESFIKQEGKGLSLPLDSFSVRLHQDGQVSIELPDSHSPCYIKTYEVDPGYKMAVCAAHPDFPEDITMVSYEELL
Regarding B2, the values for the kcat in data set [21] and in data set [22] were 0.0967 s⁻¹ and 11, respectively.
